Test results taken from patent US20150196651A1 (published 2015).
Square brackets hold non-standard residues; d marks the D form. Ends that are not written are not given here. * marks the point of attachment. Phe(F5) = N[C@@H](Cc1c(F)c(F)c(F)c(F)c1F)C(=O)O; Palmitoyl = CCCCCCCCCCCCCCCC(=O)*; Myristoyl = CCCCCCCCCCCCCC(=O)*; Nle = CCCC[C@H](N)C(=O)O; Sar = CNCC(=O)O

T1: rat PrRP receptor in RC-4B/C cells (rat, UniProt Q64121 1-370)
T1 construct: whole, on cells; endogenous receptor of RC-4B/C cells (ATCC); also called rat receptor; GPR10 receptor expressed in rat hypophyseal cells
T1 sequence (looked up): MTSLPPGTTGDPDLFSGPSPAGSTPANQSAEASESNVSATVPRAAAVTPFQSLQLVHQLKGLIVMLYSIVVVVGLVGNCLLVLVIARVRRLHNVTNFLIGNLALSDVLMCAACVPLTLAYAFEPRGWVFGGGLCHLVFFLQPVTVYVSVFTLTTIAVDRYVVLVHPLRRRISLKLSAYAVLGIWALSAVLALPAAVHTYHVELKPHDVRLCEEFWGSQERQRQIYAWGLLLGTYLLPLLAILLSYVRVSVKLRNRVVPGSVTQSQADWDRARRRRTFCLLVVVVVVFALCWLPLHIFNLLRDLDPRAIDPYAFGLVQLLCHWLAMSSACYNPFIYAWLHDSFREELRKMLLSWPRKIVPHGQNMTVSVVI

T2: human PrRP receptor GPR10 (human, UniProt P49683 1-370)
T2 construct: whole, on cells; also called GPR10 human receptor transfected in CHO cells; human GPR10 receptor
T2 sequence (looked up): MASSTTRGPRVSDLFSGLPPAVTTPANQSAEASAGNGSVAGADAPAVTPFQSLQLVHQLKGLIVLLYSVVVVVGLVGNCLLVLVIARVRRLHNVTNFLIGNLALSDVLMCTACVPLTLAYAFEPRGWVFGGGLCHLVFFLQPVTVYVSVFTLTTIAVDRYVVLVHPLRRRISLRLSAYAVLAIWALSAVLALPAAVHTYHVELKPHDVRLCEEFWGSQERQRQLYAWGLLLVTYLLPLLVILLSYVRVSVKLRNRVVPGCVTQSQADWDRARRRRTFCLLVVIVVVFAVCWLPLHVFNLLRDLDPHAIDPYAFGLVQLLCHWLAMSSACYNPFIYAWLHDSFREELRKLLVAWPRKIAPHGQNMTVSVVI

B1: analog no. 21 (peptide)
peptide: SRAHQHS[Nle]ETRTPDINPAWYTGRGIRPVGR[Phe(F5)]-NH2
B2: analog no. 28 (peptide)
peptide: Myristoyl-TPDINPAWYTGR[Sar]IRPVGRF-NH2
SMILES: CCCCCCCCCCCCCC(=O)N[C@H](C(=O)N1CCC[C@H]1C(=O)N[C@@H](CC(=O)O)C(=O)N[C@H](C(=O)N[C@@H](CC(N)=O)C(=O)N1CCC[C@H]1C(=O)N[C@@H](C)C(=O)N[C@@H](Cc1c[nH]c2ccccc12)C(=O)N[C@@H](Cc1ccc(O)cc1)C(=O)N[C@H](C(=O)NCC(=O)N[C@@H](CCCNC(=N)N)C(=O)N(C)CC(=O)N[C@H](C(=O)N[C@@H](CCCNC(=N)N)C(=O)N1CCC[C@H]1C(=O)N[C@H](C(=O)NCC(=O)N[C@@H](CCCNC(=N)N)C(=O)N[C@@H](Cc1ccccc1)C(N)=O)C(C)C)[C@@H](C)CC)[C@@H](C)O)[C@@H](C)CC)[C@@H](C)O
B3: analog no. 27 (peptide)
peptide: TPDINPAWYTGR[Sar]IRPVGRF-NH2
modifications: N-terminus assumed
SMILES: CC[C@H](C)[C@H](NC(=O)CN(C)C(=O)[C@H](CCCNC(=N)N)NC(=O)CNC(=O)[C@@H](NC(=O)[C@H](Cc1ccc(O)cc1)NC(=O)[C@H](Cc1c[nH]c2ccccc12)NC(=O)[C@H](C)NC(=O)[C@@H]1CCCN1C(=O)[C@H](CC(N)=O)NC(=O)[C@@H](NC(=O)[C@H](CC(=O)O)NC(=O)[C@@H]1CCCN1C(=O)[C@@H](N)[C@@H](C)O)[C@@H](C)CC)[C@@H](C)O)C(=O)N[C@@H](CCCNC(=N)N)C(=O)N1CCC[C@H]1C(=O)N[C@H](C(=O)NCC(=O)N[C@@H](CCCNC(=N)N)C(=O)N[C@@H](Cc1ccccc1)C(N)=O)C(C)C
B4: Rat PrRP31 (peptide)
peptide: SRAHQHSMETRTPDINPAWYTGRGIRPVGRF-NH2
notes: synthetic peptide
B5: analog no. 22 (peptide)
peptide: Palmitoyl-SRAHQHS[Nle]ETRTPDINPAWYTGRGIRPVGR[Phe(F5)]-NH2
B6: analog no. 25 (peptide)
peptide: [dF][dR]GVPRIGRGTYWAPNIDPT-NH2
modifications: N-terminus assumed
SMILES: CC[C@H](C)[C@H](NC(=O)[C@H](CCCNC(=N)N)NC(=O)[C@@H]1CCCN1C(=O)[C@@H](NC(=O)CNC(=O)[C@@H](CCCNC(=N)N)NC(=O)[C@H](N)Cc1ccccc1)C(C)C)C(=O)NCC(=O)N[C@@H](CCCNC(=N)N)C(=O)NCC(=O)N[C@H](C(=O)N[C@@H](Cc1ccc(O)cc1)C(=O)N[C@@H](Cc1c[nH]c2ccccc12)C(=O)N[C@@H](C)C(=O)N1CCC[C@H]1C(=O)N[C@@H](CC(N)=O)C(=O)N[C@H](C(=O)N[C@@H](CC(=O)O)C(=O)N1CCC[C@H]1C(=O)N[C@H](C(N)=O)[C@@H](C)O)[C@@H](C)CC)[C@@H](C)O
notes: scrambled peptide; also called 25 scram
B7: analog no. 3 (peptide)
peptide: SRAHQHS[Nle]ETRTPDINPAWYTGRGIRPVGRF-NH2
B8: analog no. 23 (peptide)
peptide: SRAHQHS[Nle]ETRTPDINPAWYTGRGIRPVGRY-NH2
modifications: N-terminus assumed
SMILES: CCCC[C@H](NC(=O)[C@H](CO)NC(=O)[C@H](Cc1c[nH]cn1)NC(=O)[C@H](CCC(N)=O)NC(=O)[C@H](Cc1c[nH]cn1)NC(=O)[C@H](C)NC(=O)[C@H](CCCNC(=N)N)NC(=O)[C@@H](N)CO)C(=O)N[C@@H](CCC(=O)O)C(=O)N[C@H](C(=O)N[C@@H](CCCNC(=N)N)C(=O)N[C@H](C(=O)N1CCC[C@H]1C(=O)N[C@@H](CC(=O)O)C(=O)N[C@H](C(=O)N[C@@H](CC(N)=O)C(=O)N1CCC[C@H]1C(=O)N[C@@H](C)C(=O)N[C@@H](Cc1c[nH]c2ccccc12)C(=O)N[C@@H](Cc1ccc(O)cc1)C(=O)N[C@H](C(=O)NCC(=O)N[C@@H](CCCNC(=N)N)C(=O)NCC(=O)N[C@H](C(=O)N[C@@H](CCCNC(=N)N)C(=O)N1CCC[C@H]1C(=O)N[C@H](C(=O)NCC(=O)N[C@@H](CCCNC(=N)N)C(=O)N[C@@H](Cc1ccc(O)cc1)C(N)=O)C(C)C)[C@@H](C)CC)[C@@H](C)O)[C@@H](C)CC)[C@@H](C)O)[C@@H](C)O
B9: analog no. 24 (peptide)
peptide: Palmitoyl-SRAHQHS[Nle]ETRTPDINPAWYTGRGIRPVGRY-NH2
SMILES: CCCCCCCCCCCCCCCC(=O)N[C@@H](CO)C(=O)N[C@@H](CCCNC(=N)N)C(=O)N[C@@H](C)C(=O)N[C@@H](Cc1c[nH]cn1)C(=O)N[C@@H](CCC(N)=O)C(=O)N[C@@H](Cc1c[nH]cn1)C(=O)N[C@@H](CO)C(=O)N[C@@H](CCCC)C(=O)N[C@@H](CCC(=O)O)C(=O)N[C@H](C(=O)N[C@@H](CCCNC(=N)N)C(=O)N[C@H](C(=O)N1CCC[C@H]1C(=O)N[C@@H](CC(=O)O)C(=O)N[C@H](C(=O)N[C@@H](CC(N)=O)C(=O)N1CCC[C@H]1C(=O)N[C@@H](C)C(=O)N[C@@H](Cc1c[nH]c2ccccc12)C(=O)N[C@@H](Cc1ccc(O)cc1)C(=O)N[C@H](C(=O)NCC(=O)N[C@@H](CCCNC(=N)N)C(=O)NCC(=O)N[C@H](C(=O)N[C@@H](CCCNC(=N)N)C(=O)N1CCC[C@H]1C(=O)N[C@H](C(=O)NCC(=O)N[C@@H](CCCNC(=N)N)C(=O)N[C@@H](Cc1ccc(O)cc1)C(N)=O)C(C)C)[C@@H](C)CC)[C@@H](C)O)[C@@H](C)CC)[C@@H](C)O)[C@@H](C)O
B10: analog no. 51 (peptide)
peptide: SRTHRHSMEIRTPDINPK(Palmitoyl)WYASRGIRPVGRF-NH2
modifications: N-terminus assumed
SMILES: CCCCCCCCCCCCCCCC(=O)NCCCC[C@H](NC(=O)[C@@H]1CCCN1C(=O)[C@H](CC(N)=O)NC(=O)[C@@H](NC(=O)[C@H](CC(=O)O)NC(=O)[C@@H]1CCCN1C(=O)[C@@H](NC(=O)[C@H](CCCNC(=N)N)NC(=O)[C@@H](NC(=O)[C@H](CCC(=O)O)NC(=O)[C@H](CCSC)NC(=O)[C@H](CO)NC(=O)[C@H](Cc1c[nH]cn1)NC(=O)[C@H](CCCNC(=N)N)NC(=O)[C@H](Cc1c[nH]cn1)NC(=O)[C@@H](NC(=O)[C@H](CCCNC(=N)N)NC(=O)[C@@H](N)CO)[C@@H](C)O)[C@@H](C)CC)[C@@H](C)O)[C@@H](C)CC)C(=O)N[C@@H](Cc1c[nH]c2ccccc12)C(=O)N[C@@H](Cc1ccc(O)cc1)C(=O)N[C@@H](C)C(=O)N[C@@H](CO)C(=O)N[C@@H](CCCNC(=N)N)C(=O)NCC(=O)N[C@H](C(=O)N[C@@H](CCCNC(=N)N)C(=O)N1CCC[C@H]1C(=O)N[C@H](C(=O)NCC(=O)N[C@@H](CCCNC(=N)N)C(=O)N[C@@H](Cc1ccccc1)C(N)=O)C(C)C)[C@@H](C)CC

target: T1, rat PrRP receptor in RC-4B/C cells; experiment: competition with 125I-rat PrRP31, RC-4B/C cells
Procedure: The rat pituitary cell line RC-4B/C (ATCC, Manassas, USA) was grown on 24-well plates which had their bottom coated with polyethyleneimine. The cells were grown to the optimal density of 300-450 thousand cells per well.
(§1) Plates were incubated for 60 minutes at room temperature. After incubation, the cells were solubilized in 0.1 mol/l solution of NaOH, and the radioactivity bound to the cells was counted using a γ-counter. The experiments were performed in duplicate, and repeated at least three times.

Row | % of PrRP31 | Ki | Binder
1 | 51% | 9.69 nM | B1
2 | 1540% | 0.32 nM | B2
3 | 62% | 7.94 nM | B3
4 | 100% | 4.93 nM | B4
5 | 966% | 0.51 nM | B5
6 | 0.09% | 5200 nM | B6
7 | 385% | 1.28 nM | B7
8 | 152% | 3.25 nM | B8
9 | 1120% | 0.44 nM | B9

target: T2, human PrRP receptor GPR10; experiment: competition with 125I-human PrRP31, CHO cells with human GPR10
Procedure: CHO cells transfected with human PrRP receptor GPR10 (Perkin Elmer, USA) were grown on 24-well plates coated with polyethyleneimine. […] The following agents were used for the experiment: binding buffer (25 mmol.1⁻¹ Tris, pH 7.4; 118 mmol.1⁻¹ NaCl, 10 mmol.1⁻¹ MgCl₂, 1 mmol.1⁻¹ CaCl₂, 5.5 mmol.1⁻¹ glucose, 0.5 mg/ml BSA), unlabeled analogs of PrRP (i.e. the analog being tested) at a final concentration between 10⁻¹¹ to 10⁻⁴ mol.1⁻¹, and radiolabeled human ¹²⁵1-PrRP31 at a final concentration of 5×10⁻¹¹ mol.1⁻¹.
as §1

Row | % of PrRP31 | Ki | Binder
10 | 45% | 8.59 nM | B1
11 | 125% | 3.12 nM | B2
12 | 54% | 7.24 nM | B10
13 | 86% | 4.51 nM | B3
14 | 100% | 3.89 nM | B4
15 | 203% | 1.92 nM | B5
16 | 0.06% | 6290 nM | B6
17 | 203% | 1.92 nM | B7
18 | 193% | 2.02 nM | B8
19 | 248% | 1.57 nM | B9
